This note sets out measurements from patent US20220098303A1 (GlaxoSmithKline, published 2022).

This assay has as its target cynomolgus PD-1 (cynomolgus). The assay can be described thus: kinetic analysis (bio-light interferometry).

Broadly, the Kd is the free concentration of one partner at which half of the binding sites on the other are occupied at equilibrium, for simple one-to-one binding. Higher therefore signals lower affinity.

B1: Pembrolizumab (antibody, V domains shown)
VH: QVQLVQSGVEVKKPGASVKVSCKASGYTFTNYYMYWVRQAPGQGLEWMGGINPSNGGTNFNEKFKNRVTLTTDSSTTTAYMELKSLQFDDTAVYYCARRDYRFDMGFDYWGQGTTVTVSS
VL: EIVLTQSPATLSLSPGERATLSCRASKGVSTSGYSYLHWYQQKPGQAPRLLIYLASYLESGVPARFSGSGSGTDFTLTISSLEPEDFAVYYCQHSRDLPLTFGGGTKVEIKR
notes: also called MK3475
With B1, binding was characterised by a dissociation constant (Kd) of 118 pM.
